Values quoted from earlier work as cited in article PMC4449288.

Target: mAKAPβ (Homo sapiens) (UniProt Q13023)
Assay: SPR

Chain of UniProt Q13023 (Q13023 whole entry): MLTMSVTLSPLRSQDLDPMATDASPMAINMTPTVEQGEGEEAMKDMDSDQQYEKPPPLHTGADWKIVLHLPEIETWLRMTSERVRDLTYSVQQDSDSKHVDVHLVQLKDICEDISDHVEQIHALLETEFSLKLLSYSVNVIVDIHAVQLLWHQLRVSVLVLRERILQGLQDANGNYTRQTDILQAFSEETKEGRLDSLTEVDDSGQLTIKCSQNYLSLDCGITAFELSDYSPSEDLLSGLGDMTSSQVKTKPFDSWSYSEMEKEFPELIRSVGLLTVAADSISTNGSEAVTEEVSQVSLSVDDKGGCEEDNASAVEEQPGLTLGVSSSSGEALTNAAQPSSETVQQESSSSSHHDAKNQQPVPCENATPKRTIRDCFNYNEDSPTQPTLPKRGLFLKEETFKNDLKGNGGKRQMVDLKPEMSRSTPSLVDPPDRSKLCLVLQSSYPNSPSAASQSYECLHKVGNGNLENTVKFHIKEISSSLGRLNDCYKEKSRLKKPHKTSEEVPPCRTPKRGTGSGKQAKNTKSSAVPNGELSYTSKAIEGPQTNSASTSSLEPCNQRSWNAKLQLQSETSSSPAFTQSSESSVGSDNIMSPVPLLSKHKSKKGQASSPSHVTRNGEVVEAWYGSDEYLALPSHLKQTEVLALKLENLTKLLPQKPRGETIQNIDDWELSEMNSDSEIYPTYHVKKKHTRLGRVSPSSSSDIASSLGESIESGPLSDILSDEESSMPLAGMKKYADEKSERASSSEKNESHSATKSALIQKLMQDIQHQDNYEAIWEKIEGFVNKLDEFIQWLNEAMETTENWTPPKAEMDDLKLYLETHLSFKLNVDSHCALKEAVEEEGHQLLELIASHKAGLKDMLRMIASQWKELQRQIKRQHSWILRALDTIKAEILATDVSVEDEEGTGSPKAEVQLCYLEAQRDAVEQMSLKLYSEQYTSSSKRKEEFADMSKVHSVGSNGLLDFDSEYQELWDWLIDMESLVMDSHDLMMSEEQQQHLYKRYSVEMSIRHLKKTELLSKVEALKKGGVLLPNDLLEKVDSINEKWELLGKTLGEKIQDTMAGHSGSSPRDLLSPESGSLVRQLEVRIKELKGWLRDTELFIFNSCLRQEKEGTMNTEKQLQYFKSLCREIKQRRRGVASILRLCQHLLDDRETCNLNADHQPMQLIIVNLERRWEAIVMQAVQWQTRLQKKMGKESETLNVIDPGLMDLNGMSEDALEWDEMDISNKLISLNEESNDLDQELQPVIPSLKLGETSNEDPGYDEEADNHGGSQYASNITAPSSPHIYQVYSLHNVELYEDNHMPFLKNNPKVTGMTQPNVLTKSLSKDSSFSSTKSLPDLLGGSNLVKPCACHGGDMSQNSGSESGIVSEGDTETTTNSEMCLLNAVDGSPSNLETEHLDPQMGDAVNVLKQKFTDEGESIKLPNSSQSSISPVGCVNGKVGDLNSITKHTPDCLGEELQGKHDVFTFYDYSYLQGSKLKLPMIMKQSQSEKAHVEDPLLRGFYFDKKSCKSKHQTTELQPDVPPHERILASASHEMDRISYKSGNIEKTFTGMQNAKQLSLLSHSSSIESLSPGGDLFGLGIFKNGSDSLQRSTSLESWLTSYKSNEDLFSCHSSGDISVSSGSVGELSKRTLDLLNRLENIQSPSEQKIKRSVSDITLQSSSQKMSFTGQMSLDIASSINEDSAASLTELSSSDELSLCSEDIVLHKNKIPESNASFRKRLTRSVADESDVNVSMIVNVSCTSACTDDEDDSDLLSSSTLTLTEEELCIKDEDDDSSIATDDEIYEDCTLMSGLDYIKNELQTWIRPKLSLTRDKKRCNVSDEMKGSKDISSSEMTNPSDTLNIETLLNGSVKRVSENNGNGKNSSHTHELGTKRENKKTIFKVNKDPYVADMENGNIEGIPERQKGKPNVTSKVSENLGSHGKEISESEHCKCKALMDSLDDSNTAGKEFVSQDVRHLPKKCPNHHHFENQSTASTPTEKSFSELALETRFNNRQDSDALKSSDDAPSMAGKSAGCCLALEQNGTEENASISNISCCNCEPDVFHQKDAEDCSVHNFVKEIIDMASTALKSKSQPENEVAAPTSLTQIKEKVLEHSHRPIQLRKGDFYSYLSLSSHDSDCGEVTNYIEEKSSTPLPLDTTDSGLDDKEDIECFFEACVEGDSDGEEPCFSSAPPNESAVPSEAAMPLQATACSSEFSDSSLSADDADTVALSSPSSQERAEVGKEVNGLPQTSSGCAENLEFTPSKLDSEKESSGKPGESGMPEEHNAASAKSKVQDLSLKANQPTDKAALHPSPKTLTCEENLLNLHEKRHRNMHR

- Kd: 1.6 nM
Substance: RSK3 (from UniProt Q15349)
